Consider 1 substance from publication PMC9680610.

For this experiment, the target named is angiotensin-converting enzyme-2 (ACE2) with the neck domain (UniProt Q9BYF1). Put plainly: mass photometry; proteins measured alone, non-labelled, in solution; counts of monomer, dimer and trimer species; ACE2 at 10 nM.

“angiotensin-converting enzyme-2 (ACE2) with the neck domain (from UniProt Q9BYF1 18-740) (receptor)” came in with a stoichiometry N of 2.

The term stoichiometry N denotes a count of units in the complex or per binding partner.
